From paper PMC9396398, “Crystal structure of Ankyrin-G in complex with a fragment of Neurofascin reveals binding mechanisms required for integrity of the axon initial segment” (The Journal of Biological Chemistry, 2022)

Key:
[1] = target: T1, AnkG R8-16 (AnkG 275 to 571) (UniProt O70511 275-571); experiment: ITC; VP-ITC at 25 °C; 50 mM Tris, 100 mM NaCl, 1 mM EDTA, 1 mM DTT, pH 7.8; Nfasc proteins (200 μM) in the syringe, AnkG proteins (20 μM) in the cell; one-site binding model; settings: both partners purified
T1 construct: Ankyrin-G (AnkG), ANK repeats 8-16, residues 275-571 (limits are told for the crystallisation construct); In the crystal it stood fused behind the Nfasc ABD; also called eighth to sixteenth ANK repeats; source: E. coli BL21 (DE3), purified (Ni-NTA, size-exclusion chromatography)
T1 sequence (looked up): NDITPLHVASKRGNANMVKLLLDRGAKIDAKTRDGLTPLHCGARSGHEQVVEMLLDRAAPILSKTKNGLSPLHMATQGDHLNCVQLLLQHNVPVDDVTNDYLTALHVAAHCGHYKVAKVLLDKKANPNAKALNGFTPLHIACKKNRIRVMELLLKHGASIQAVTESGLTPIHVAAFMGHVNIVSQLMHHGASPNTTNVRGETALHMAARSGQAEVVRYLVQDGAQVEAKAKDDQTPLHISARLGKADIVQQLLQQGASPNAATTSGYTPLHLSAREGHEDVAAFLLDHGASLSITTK

AnkG R1-24 V282Q = target: T2, AnkG R1-24 V282Q (Rattus norvegicus); experiment: ITC
T2 chain: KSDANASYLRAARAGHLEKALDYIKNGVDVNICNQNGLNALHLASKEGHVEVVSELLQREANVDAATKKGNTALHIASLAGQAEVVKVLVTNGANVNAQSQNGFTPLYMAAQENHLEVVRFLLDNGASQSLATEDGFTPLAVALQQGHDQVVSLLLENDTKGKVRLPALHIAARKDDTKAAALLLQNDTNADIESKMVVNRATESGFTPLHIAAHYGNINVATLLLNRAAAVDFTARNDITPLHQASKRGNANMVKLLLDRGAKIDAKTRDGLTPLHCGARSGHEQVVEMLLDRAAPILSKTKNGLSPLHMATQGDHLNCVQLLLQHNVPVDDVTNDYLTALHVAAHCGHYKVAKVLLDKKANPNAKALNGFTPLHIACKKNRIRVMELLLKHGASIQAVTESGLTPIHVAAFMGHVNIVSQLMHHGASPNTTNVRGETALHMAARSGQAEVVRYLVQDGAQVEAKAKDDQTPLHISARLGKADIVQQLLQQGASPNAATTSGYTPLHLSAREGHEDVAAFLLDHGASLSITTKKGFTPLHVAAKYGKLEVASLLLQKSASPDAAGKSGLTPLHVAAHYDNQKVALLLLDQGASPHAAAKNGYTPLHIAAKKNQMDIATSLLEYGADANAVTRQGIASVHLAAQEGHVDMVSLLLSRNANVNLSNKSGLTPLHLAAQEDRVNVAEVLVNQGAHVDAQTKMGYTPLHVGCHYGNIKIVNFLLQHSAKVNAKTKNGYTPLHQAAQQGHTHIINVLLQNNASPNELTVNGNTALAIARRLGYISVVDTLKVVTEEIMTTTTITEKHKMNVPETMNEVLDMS

AnkG R6-16 = AnkG R6-16 (UniProt O70511); experiment: ITC; VP-ITC at 25 °C; 50 mM Tris, 100 mM NaCl, 1 mM EDTA, 1 mM DTT, pH 7.8; Nfasc proteins (200 μM) in the syringe, AnkG proteins (20 μM) in the cell; one-site binding model
Sequence of AnkG R6-16 (O70511 whole entry): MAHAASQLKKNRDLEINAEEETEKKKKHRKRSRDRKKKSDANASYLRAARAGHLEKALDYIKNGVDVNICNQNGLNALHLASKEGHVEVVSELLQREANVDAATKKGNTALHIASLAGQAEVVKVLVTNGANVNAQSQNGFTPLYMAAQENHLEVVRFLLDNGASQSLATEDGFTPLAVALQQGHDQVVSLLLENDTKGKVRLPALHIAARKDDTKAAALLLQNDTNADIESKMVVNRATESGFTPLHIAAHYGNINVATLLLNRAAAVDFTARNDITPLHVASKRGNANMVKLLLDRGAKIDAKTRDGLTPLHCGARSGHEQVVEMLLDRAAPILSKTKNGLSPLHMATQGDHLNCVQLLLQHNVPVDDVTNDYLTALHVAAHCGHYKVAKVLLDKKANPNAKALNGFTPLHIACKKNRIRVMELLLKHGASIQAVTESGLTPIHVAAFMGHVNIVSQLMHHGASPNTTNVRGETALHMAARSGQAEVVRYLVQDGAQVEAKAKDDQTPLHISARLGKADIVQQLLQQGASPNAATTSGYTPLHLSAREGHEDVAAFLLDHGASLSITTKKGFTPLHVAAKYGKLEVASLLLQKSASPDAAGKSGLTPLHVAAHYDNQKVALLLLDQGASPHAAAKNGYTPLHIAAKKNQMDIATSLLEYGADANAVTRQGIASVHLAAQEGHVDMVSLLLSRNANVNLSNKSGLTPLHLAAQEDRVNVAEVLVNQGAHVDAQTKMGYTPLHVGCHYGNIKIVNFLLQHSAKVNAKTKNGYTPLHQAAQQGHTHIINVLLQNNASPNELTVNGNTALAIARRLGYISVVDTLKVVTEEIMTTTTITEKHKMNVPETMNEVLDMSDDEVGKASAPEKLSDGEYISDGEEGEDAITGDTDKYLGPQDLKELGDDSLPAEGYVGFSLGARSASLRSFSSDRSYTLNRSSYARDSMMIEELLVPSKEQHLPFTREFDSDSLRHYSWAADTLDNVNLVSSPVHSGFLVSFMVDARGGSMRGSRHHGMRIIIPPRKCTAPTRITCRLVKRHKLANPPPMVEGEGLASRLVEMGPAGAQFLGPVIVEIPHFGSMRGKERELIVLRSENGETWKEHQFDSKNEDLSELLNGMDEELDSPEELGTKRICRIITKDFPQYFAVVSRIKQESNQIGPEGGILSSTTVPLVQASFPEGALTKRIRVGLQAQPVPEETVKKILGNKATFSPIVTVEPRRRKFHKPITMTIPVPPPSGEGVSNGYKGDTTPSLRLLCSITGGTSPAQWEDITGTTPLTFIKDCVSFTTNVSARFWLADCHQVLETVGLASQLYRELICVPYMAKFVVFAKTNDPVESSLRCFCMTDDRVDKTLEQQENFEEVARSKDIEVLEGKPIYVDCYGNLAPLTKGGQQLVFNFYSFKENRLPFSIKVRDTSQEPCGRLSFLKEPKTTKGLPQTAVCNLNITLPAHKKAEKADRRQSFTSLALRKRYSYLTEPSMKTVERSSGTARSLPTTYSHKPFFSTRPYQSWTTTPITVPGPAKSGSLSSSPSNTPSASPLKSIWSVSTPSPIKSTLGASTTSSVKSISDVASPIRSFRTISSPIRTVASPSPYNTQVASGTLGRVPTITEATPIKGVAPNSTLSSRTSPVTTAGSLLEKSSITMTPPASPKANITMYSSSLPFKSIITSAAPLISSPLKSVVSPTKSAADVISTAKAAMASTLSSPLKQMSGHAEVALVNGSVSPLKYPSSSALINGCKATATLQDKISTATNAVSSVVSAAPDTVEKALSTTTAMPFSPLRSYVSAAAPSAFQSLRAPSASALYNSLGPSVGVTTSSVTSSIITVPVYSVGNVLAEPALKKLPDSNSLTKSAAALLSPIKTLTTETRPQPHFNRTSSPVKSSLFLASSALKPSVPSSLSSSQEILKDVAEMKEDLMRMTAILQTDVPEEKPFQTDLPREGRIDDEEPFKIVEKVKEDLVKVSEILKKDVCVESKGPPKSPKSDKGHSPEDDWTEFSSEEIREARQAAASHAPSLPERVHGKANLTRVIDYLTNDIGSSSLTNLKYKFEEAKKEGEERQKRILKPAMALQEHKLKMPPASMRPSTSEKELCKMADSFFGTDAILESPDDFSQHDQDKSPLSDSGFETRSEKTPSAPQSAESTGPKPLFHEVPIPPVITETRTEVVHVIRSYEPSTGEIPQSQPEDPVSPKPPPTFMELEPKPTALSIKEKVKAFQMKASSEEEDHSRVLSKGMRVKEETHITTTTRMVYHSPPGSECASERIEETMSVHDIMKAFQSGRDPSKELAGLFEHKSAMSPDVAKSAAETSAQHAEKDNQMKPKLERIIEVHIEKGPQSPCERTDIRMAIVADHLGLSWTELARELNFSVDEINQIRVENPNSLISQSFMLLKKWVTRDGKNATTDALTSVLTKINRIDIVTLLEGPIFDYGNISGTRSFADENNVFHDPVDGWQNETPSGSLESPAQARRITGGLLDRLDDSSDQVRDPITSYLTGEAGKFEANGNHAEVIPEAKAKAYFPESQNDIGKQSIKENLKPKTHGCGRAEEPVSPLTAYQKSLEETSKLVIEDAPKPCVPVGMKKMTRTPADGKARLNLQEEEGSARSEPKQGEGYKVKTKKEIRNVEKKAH

AnkG R6-24 = target: T3, AnkG R6-24 (Rattus norvegicus); experiment: ITC
T3 chain: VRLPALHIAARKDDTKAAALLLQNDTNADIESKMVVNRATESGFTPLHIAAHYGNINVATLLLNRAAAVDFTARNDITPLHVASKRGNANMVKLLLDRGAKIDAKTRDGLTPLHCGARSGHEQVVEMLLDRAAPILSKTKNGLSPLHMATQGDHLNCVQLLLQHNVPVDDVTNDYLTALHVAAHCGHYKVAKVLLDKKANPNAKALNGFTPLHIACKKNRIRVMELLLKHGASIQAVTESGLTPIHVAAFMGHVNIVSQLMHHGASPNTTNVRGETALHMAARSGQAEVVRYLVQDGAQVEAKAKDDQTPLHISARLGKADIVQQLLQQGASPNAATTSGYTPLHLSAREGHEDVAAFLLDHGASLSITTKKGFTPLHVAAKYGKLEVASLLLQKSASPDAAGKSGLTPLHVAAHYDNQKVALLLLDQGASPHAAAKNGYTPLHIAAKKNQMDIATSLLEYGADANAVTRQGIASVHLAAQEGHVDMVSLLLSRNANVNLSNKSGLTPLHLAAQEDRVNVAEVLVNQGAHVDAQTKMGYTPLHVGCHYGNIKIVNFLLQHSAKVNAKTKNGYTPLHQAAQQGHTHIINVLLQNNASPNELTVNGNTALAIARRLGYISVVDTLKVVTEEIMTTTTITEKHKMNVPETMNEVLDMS

AnkG R8-24 = target: T4, AnkG R8-24 (Rattus norvegicus); experiment: ITC
T4 chain: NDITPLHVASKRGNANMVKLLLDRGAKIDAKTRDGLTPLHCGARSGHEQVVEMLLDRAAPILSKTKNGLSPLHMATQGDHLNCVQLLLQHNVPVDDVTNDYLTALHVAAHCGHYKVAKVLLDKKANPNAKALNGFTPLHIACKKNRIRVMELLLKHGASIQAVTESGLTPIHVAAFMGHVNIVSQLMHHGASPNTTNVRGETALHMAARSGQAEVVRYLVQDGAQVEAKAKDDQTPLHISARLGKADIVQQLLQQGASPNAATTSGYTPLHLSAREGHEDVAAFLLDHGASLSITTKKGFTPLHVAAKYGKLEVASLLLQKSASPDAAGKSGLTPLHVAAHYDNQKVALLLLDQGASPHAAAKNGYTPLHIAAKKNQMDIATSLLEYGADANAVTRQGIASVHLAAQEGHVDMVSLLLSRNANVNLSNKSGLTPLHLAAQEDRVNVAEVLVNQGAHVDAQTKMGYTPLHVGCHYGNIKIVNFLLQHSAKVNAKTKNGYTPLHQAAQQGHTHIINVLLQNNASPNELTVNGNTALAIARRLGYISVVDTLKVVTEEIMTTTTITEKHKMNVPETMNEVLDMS

B1: Nfasc ankyrin-binding domain (ABD, residues 1187-1214) (domain or fragment, UniProt P97685 1187-1214, looked up)
chain: SDDSLVDYGEGGEGQFNEDGSFIGQYTV
notes: also called Nfasc ABD; source: E. coli BL21 (DE3), purified (Ni-NTA, size-exclusion chromatography)
[1]
  Kd: ~1200 nM
AnkG R1-24 V282Q
  Kd: 1300 nM
AnkG R6-16
  Kd: 290 nM
AnkG R6-24
  Kd: 130 nM
AnkG R8-24
  Kd: 1100 nM
